The values below come from publication PMC3528742.

For test [1], the target named is human c-NADP-ME H51A/D90A (human) (UniProt P48163). Kind of test: AUC; sedimentation velocity, 0.3 mg/ml protein, 30 mM Tris-acetate pH 7.4, without urea, 20°C, 42,000 rpm, SEDFIT continuous size distribution.
Test [2] concerns the target human c-NADP-ME H51A/D139A (human) (UniProt P48163). Described as above.
For test [3], the target named is human c-NADP-ME H142A (human) (UniProt P48163). Described as above.
The target in test [4] is human c-NADP-ME H142A/D568A (human) (UniProt P48163). The test is described as above.
The target in test [5] is human c-NADP-ME W572A (human) (UniProt P48163). Described as above.
Test [6] addresses T1, human cytosolic NADP+-dependent malic enzyme, wild type (human), P48163.
T1 chain: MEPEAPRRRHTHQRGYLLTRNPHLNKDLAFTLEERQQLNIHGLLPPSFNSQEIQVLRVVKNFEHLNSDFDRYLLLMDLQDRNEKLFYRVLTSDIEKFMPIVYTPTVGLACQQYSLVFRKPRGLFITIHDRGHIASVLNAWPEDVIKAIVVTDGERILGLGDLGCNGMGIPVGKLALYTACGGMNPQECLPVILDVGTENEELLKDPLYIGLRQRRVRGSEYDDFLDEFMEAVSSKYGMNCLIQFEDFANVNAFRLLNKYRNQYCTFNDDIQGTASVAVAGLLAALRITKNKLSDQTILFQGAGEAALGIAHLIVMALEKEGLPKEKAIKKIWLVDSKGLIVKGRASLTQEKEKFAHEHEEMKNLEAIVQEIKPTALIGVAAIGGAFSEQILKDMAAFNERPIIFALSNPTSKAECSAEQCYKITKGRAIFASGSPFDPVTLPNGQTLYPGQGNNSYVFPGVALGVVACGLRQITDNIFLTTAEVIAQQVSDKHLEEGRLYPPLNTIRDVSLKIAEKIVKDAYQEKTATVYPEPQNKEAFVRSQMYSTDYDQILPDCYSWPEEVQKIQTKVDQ
Kind of test: AUC; sedimentation velocity, 0.3 mg/ml protein, preincubated with 2 M urea in 30 mM Tris-acetate pH 7.4 at 25°C for 16 h, run at 20°C. The settings on record: remark: other sources report otherwise.

“human c-NADP-ME H51A/D90A (from UniProt P48163 13-564) (enzyme)”: the stoichiometry N – broadly, a count of units in the complex or per binding partner – in test [1] amounted to 2. As to “human c-NADP-ME H51A/D139A (from UniProt P48163 13-564) (enzyme)”, the stoichiometry N in test [2] was determined as 2. On to “human c-NADP-ME H142A (from UniProt P48163 13-564) (enzyme)”, for which the stoichiometry N in test [3] amounted to 2.

For “human c-NADP-ME H142A/D568A (from UniProt P48163 13-564) (enzyme)”, the stoichiometry N in test [4] amounted to 2. With “human c-NADP-ME W572A (from UniProt P48163 13-564) (enzyme)”, the stoichiometry N in test [5] worked out at 2.

B1: human cytosolic NADP+-dependent malic enzyme, wild type, P48163 1-572 (enzyme)
chain: MEPEAPRRRHTHQRGYLLTRNPHLNKDLAFTLEERQQLNIHGLLPPSFNSQEIQVLRVVKNFEHLNSDFDRYLLLMDLQDRNEKLFYRVLTSDIEKFMPIVYTPTVGLACQQYSLVFRKPRGLFITIHDRGHIASVLNAWPEDVIKAIVVTDGERILGLGDLGCNGMGIPVGKLALYTACGGMNPQECLPVILDVGTENEELLKDPLYIGLRQRRVRGSEYDDFLDEFMEAVSSKYGMNCLIQFEDFANVNAFRLLNKYRNQYCTFNDDIQGTASVAVAGLLAALRITKNKLSDQTILFQGAGEAALGIAHLIVMALEKEGLPKEKAIKKIWLVDSKGLIVKGRASLTQEKEKFAHEHEEMKNLEAIVQEIKPTALIGVAAIGGAFSEQILKDMAAFNERPIIFALSNPTSKAECSAEQCYKITKGRAIFASGSPFDPVTLPNGQTLYPGQGNNSYVFPGVALGVVACGLRQITDNIFLTTAEVIAQQVSDKHLEEGRLYPPLNTIRDVSLKIAEKIVKDAYQEKTATVYPEPQNKEAFVRSQMYSTDYDQILPDCYSWPEEVQKIQTKVDQ
For B1, the stoichiometry N in test [6] amounted to 2.
